T1: FSTL1 (Homo sapiens, UniProt Q12841)
T1 sequence (Q12841 21-308): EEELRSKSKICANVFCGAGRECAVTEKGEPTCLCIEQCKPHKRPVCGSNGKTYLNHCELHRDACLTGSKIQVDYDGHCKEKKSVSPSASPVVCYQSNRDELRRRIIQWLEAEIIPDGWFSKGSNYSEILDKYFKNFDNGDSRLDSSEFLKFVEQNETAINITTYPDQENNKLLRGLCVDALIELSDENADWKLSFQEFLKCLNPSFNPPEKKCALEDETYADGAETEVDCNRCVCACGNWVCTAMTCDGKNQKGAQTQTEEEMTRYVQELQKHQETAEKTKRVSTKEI


Experiments:
FSTL1 = target: T1, FSTL1; test: Affinity of mouse chimeric antibodies for human FSTL1, Biacore T-200 (Example 33); format: binding
Method: The mouse chimeric antibodies were immobilized onto Sensor Chip CM5 (GE Healthcare Japan Corp., BR-1005-30) using Mouse Antibody Capture Kit (GE Healthcare Japan Corp., BR-1008-38), and their affinity for human FSTL1 was calculated using Biacore T-200 (GE Healthcare Japan Corp.).
First, the exhaustive activity comparison of the obtained antibodies was conducted with the human FSTL1 concentration fixed to 10 μg/ml (Table 33-1, FIG. 58).
Next, the KD values of clone #6-55, #7-34, and #13 presumed to have high affinity in FIG. 58 were calculated with the antigen concentration adjusted to 0 to 20 μg/ml (Table 35-2).
First, the exhaustive activity comparison of the obtained antibodies was conducted with the human FSTL1 concentration fixed to 10 μg/ml (Table 33-1, FIG. 90).
Next, the KD values of clone #6-55, #7-34, and #13 presumed to have high affinity in FIG. 90 were calculated with the antigen concentration adjusted to 0 to 20 μg/ml (Table 35-2).

[1] = tested on: GFP-positive and Snail-positive B16-F10 tumor cells; test: Snail-positive B16-F10 bone metastasis model, intratumoral administration (Example 17); format: in vivo, mouse; conditions: intratumoral 10 mg/kg on day 7, assay day 14; FIG. 105A
Excerpt: Three antibodies were comparatively analyzed for their antitumor effects and an immunosuppression-mitigating effect using bone metastasis models in which mouse melanoma cells B16-F10 forced to express Snail were subcutaneously and intravenously transplanted in C57BL/6N mice.
1. Experiment Group (n=5) • 1. No treatment • 2. Control IgG (anti-DNP) • 3. Anti-FSTL1 Clone #6-55 • 4. Anti-FSTL1 Clone #7-34 • 5. Anti-FSTL1 Clone #8-1
• Day 0: transplantation of GFP-positive and Snail-positive B16-F10 tumor cells (5×10^5 cells subcutaneously & 1×10^5 cells intravenously) • Day 7: intratumoral administration of the antibody (200 μg/0.1 mL/tumor) • Day 14: various assays (with a focus on flow cytometry analysis)
• Effects on the growth of subcutaneous tumor (calculation of tumor volume by tumor size measurement): measured 7, 11, and 14 days after tumor implantation (FIG. 105C) • Effects on bone metastasis (GFP-positive tumor cells in bone marrow) (FIG. 105A) • Effects on the expansion of mesenchymal stem cells (CD45− negative cells in bone marrow and in the spleen) (FIGS. 105B and 105D) • Effects on the expansion of immunosuppressive Treg cells (CD4-positive and Foxp3-positive cells in bone marrow or the spleen) (FIG. 105D) • Other immunosuppressive properties (FIG. 105D)
In order to evaluate in vivo antibody activity, antitumor effects and immunosuppression-mitigating effects were comparatively analyzed using bone metastasis models in which mouse melanoma cells (B16-F10) forced to express Snail were subcutaneously and intravenously transplanted in C57BL/6N mice. […]
It is known that when Snail-positive tumor cells are subcutaneously or intravenously transplanted to mice, the tumor metastasizes preferentially to bone marrow in addition to various organs, and this incurs the expansion of mesenchymal stem cells (MSCs) originating in the bone marrow, thereby systemically and strongly suppressing the induction of antitumor immunity (Cancer Research 73: 6185, 2013). […] The percentage (%) of CD45^− cells in the bone marrow cells was analyzed by flow cytometry.

Molecule	affinity in an assay system using surface plasmon resonance (FSTL1)	bone metastasis (GFP-positive tumor cells in bone marrow) [1]
#6-55: chicken-mouse chimeric anti-FSTL1 antibody clone; variable regions SEQ ID NO: 783 (light), 785 (heavy) (antibody, V domains shown, mouse constant regions) VH: AVTLDESGGGLQTPGGALSLVCKGSGFTFTSVTMQWVRQAPGKGLEWVASVCSGSSTYYAPAVKGRATISRDNGQSTVRLQLSNLRPEDTGTYYCAKIAGRARWSCTSAAYNIDAWGHGTEVIVSS VL: ASTQPSSVSAIPGETVKITCSGGGNNYGWYQQRSPGSAPVTVIYYNDNRPSNIPSRFSGSTSGSTSTLTITGVQADDEAIYYCGSWDSNTDSGIFGAGTTLTVL	strong affinity	suppressed
#7-34: chicken-mouse chimeric anti-FSTL1 antibody clone; variable regions SEQ ID NO: 787 (light), 789 (heavy) (antibody, V domains shown, mouse constant regions) VH: AVTLDESGGGLQTPGGGLSLVCKASGFTFSSVTMQWVRQAPGKGLEWVASICSGSSTYYGPAVKGRATISRDNGQNTVRLQLNNLRAEDTATYYCAKIVGRGRWSCTSAAYNIDAWGHGTEVIVSS VL: ASTQPSSVSANPGETVKITCSGGGNNYGWYQQKSPGSAPVTVIYYNNNRPSNIPSRFSGSTSGSTSTLTITGVQAEDEAVYYCGSYEGSTDSGIFGAGTTLTVL	strong affinity	no suppressive effect
#8-1: chicken-mouse chimeric anti-FSTL1 antibody clone; variable regions SEQ ID NO: 791 (light), 793 (heavy) (antibody, V domains shown, mouse constant regions) VH: AVTLDESGGGLQTPGGALSLVCKGSGFTFSSFNMFWVRQAPGKGLEWVAGIGKDGVPKYGAAVDGRATISKDNGQSTMRLQLNNLRAEDTGTYFCAKAAGGCSYDWCGIYAGDIDTWGHGTEVIVSS VL: ASTQPSSVSANPGEAVKITCSGGSGSYYGWYQQKSPGSAPVTVIYNNNQRPSDIPSRFSGSKSGSTATLTITGVQAEDEAVYFCGGYDSSSGHGGIFGAGTTLTVL		suppressed
#13: chicken-mouse chimeric anti-FSTL1 antibody clone; variable regions SEQ ID NO: 815 (light), 817 (heavy) (antibody, V domains shown, mouse constant regions) VH: AVTLDESGGGLQTPGGGLSLVCKASGFTFSSVTMQWVRQAPGKGLEWVASICSGSSTYYGPAVKGRATISRDNGQNTVRLQLNNLRAEDTATYYCAKIVGRGRWSCTSAAYNIDAWGHGTEVIVSS VL: ASTQPSSVSANPGETVKITCSGGGNNYGWYQQKSPGSAPVTVIYNNNNRPSNIPSRFSGSKSGSTNTLTITGVQAEDEAVYYCGSYDSSSDSGIFGAGTTLTVL	strong affinity	
#33: chicken-mouse chimeric anti-FSTL1 antibody clone; variable regions SEQ ID NO: 823 (light), 825 (heavy) (antibody, V domains shown, mouse constant regions) VH: AVTLDESGGGLQTPGGGLSLVCKASGFTFSSFNMNWVRQAPGKGLEYVAEISGTGSSTYYGSAVKGRATISRDNGQSTVRLQLNNLRAEDTATYFCARGDGAYSIDAWGHGTEVIVSS VL: ASTQPSSVSANPGETVEITCSGDSSYYGWFQQKSPGSAPVTVIYDNTNRPSDIPSRFSGSKSGSTATLTITGVRAEDEAVYYCGGYDSSTYDGIFGAGTTLTVL	strong affinity	
